{"source": "patent US20240150495A1", "about": "(F STAR BIOTECHNOLOGISCHE FORSCHUNGS UND ENTWICKLUNGSGES M B …, published 2024)", "binders": {"B1": {"name": "human ανβ3 integrin (Chemicon) (receptor)", "chain 1": "FNLDVDSPAEYSGPEGSYFGFAVDFFVPSASSRMFLLVGAPKANTTQPGIVEGGQVLKCDWSSTRRCQPIEFDATGNRDYAKDDPLEFKSHQWFGASVRSKQDKILACAPLYHWRTEMKQEREPVGTCFLQDGTKTVEYAPCRSQDIDADGQGFCQGGFSIDFTKADRVLLGGPGSFYWQGQLISDQVAEIVSKYDPNVYSIKYNNQLATRTAQAIFDDSYLGYSVAVGDFNGDGIDDFVSGVPRAARTLGMVYIYDGKNMSSLYNFTGEQMAAYFGFSVAATDINGDDYADVFIGAPLFMDRGSDGKLQEVGQVSVSLQRASGDFQTTKLNGFEVFARFGSAIAPLGDLDQDGFNDIAIAAPYGGEDKKGIVYIFNGRSTGLNAVPSQILEGQWAARSMPPSFGYSMKGATDIDKNGYPDLIVGAFGVDRAILYRARPVITVNAGLEVYPSILNQDNKTCSLPGTALKVSCFNVRFCLKADGKGVLPRKLNFQVELLLDKLKQKGAIRRALFLYSRSPSHSKNMTISRGGLMQCEELIAYLRDESEFRDKLTPITIFMEYRLDYRTAADTTGLQPILNQFTPANISRQAHILLDCGEDNVCKPKLEVSVDSDQKKIYIGDDNPLTLIVKAQNQGEGAYEAELIVSIPLQADFIGVVRNNEALARLSCAFKTENQTRQVVCDLGNPMKAGTQLLAGLRFSVHQQSEMDTSVKFDLQIQSSNLFDKVSPVVSHKVDLAVLAAVEIRGVSSPDHVFLPIPNWEHKENPETEEDVGPVVQHIYELRNNGPSSFSKAMLHLQWPYKYNNNTLLYILHYDIDGPMNCTSDMEINPLRIKISSLQTTEKNDTVAGQGERDHLITKRDLALSEGDIHTLGCGVAQCLKIVCQVGRLDRGKSAILYVKSLLWTETFMNKENQNHSYSLKSSASFNVIEFPYKNLPIEDITNSTLVTTNVTWGIQPAPMPVPVWVIILAVLAGLLLLAVLVFVMYRMGFFKRVRPPQEEQEREQLQPHENGEGNSET", "chain 2": "GPNICTTRGVSSCQQCLAVSPMCAWCSDEALPLGSPRCDLKENLLKDNCAPESIEFPVSEARVLEDRPLSDKGSGDSSQVTQVSPQRIALRLRPDDSKNFSIQVRQVEDYPVDIYYLMDLSYSMKDDLWSIQNLGTKLATQMRKLTSNLRIGFGAFVDKPVSPYMYISPPEALENPCYDMKTTCLPMFGYKHVLTLTDQVTRFNEEVKKQSVSRNRDAPEGGFDAIMQATVCDEKIGWRNDASHLLVFTTDAKTHIALDGRLAGIVQPNDGQCHVGSDNHYSASTTMDYPSLGLMTEKLSQKNINLIFAVTENVVNLYQNYSELIPGTTVGVLSMDSSNVLQLIVDAYGKIRSKVELEVRDLPEELSLSFNATCLNNEVIPGLKSCMGLKIGDTVSFSIEAKVRGCPQEKEKSFTIKPVGFKDSLIVQVTFDCDCACQAQAEPNSHRCNNGNGTFECGVCRCGPGWLGSQCECSEEDYRPSQQDECSPREGQPVCSQRGECLCGQCVCHSSDFGKITGKYCECDDFSCVRYKGEMCSGHGQCSCGDCLCDSDWTGYYCNCTTRTDTCMSSNGLLCSGRGKCECGSCVCIQPGSYGDTCEKCPTCPDACTFKKECVECKKFDRGALHDENTCNRYCRDEIESVKELKDTGKDAVNCTYKNEDDCVVRFQYYEDSSGKSILYVVEEPECPKGPDILVVLLSVMGAILLIGLAALLIWKLLITIHDRKEFAKFEEERARAKWDTANNPLYKEATSTFTNITYRGT", "notes": "Bought from Chemicon; coated at 1 ug/ml on Maxisorp plates; also called alpha-v beta-3 integrin"}}, "molecular_target": "T1, Fcab-wt (human, UniProt P01857-1 99-330 = IgG part)", "T1 construct": "Negative control", "experiment": "ELISA on coated human ανβ3 integrin, HRP labelled protein A", "protocol": "For the integrin ELISA, 1 ug/ml human ανβ3 integrin in PBS was coated over night on Maxisorp plates and blocked for 1 h with BSA in PBS containing 1 mM Ca2+. […] Bound Fcabs were detected by HRP labelled protein A and TMB as a substrate.", "data": [{"binder": "B1", "values": [{"measurement": "binding result", "value": "no binding (tested: 10 ug/ml)"}]}]}
